# Article PMC10447241 (Nature, 2023)
# B1: βarr1 3Q (K232Q, R236Q and K250Q) with GFP2 at the C terminus (natural protein, human, UniProt P49407 1-418, looked up)
# chain: MGDKGTRVFKKASPNGKLTVYLGKRDFVDHIDLVDPVDGVVLVDPEYLKERRVYVTLTCAFRYGREDLDVLGLTFRKDLFVANVQSFPPAPEDKKPLTRLQERLIKKLGEHAYPFTFEIPPNLPCSVTLQPGPEDTGKACGVDYEVKAFCAENLEEKIHKRNSVRLVIRKVQYAPERPGPQPTAETTRQFLMSDKPLHLEASLDKEIYYHGEPISVNVHVTNNTNKTVKKIQISVQQYADICLFNTAQYQCPVAMEEADDTVAPSSTFCKVYTLTPFLANNREKRGLALDGKLKHEDTNLASSTLLREGANREILGIIVSYKVKVKLVVSRGGLLGDLASSDVAVELPFTLMHPKPKEEPPHREVPENETPVDTNLIELDTNDDDIVFEDFARQRLKGMKDDKEEEEDGTGSPQLNNR
# notes: β-arrestin 1 (βarr1), human, triple mutant of the wild type; source: HEK293F, transfected, in living cells; not shown: GFP2, C-terminal, kept
# How the values were obtained:
# Assay in all cases: FRET or BRET; GCGR–Rluc8 (or mutants) and βarr1–GFP2 (or mutants) co-transfected 1:1 in HEK293F cells; glucagon 1 pM to 10 μM; HBSS, 20 mM HEPES pH 7.4; coelenterazine 400a; EC50 is that of glucagon in inducing the BRET signal
# [1] = target: wild-type GCGR with Rluc8 at the C terminus (human) (UniProt P47871)
# Chain of wild-type GCGR with Rluc8 at the C terminus (human) (P47871 26-477): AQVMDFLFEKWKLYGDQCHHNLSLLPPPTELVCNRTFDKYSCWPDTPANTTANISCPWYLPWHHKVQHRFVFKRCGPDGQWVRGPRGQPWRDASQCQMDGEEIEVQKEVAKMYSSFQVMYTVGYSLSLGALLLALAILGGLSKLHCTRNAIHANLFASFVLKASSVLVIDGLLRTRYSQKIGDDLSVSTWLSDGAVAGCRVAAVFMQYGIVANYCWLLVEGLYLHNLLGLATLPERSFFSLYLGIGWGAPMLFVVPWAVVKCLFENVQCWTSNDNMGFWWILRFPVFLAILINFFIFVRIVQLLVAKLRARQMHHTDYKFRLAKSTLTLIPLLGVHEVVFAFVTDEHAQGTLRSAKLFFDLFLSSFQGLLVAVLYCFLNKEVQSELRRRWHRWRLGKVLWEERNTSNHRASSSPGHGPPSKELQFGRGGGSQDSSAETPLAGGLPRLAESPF
# [2] = target: the GCGR mutations R413A and R414A (as a group, for the printed range of the EC50 shift)
# [3] = target: T1, wild-type GCGR with Rluc8 at the C terminus (human, UniProt P47871 26-477); settings: partners not purified
# T1 construct: glucagon receptor (GCGR), human, wild type; also called WT; source: HEK293F, transfected, in living cells; not shown: FLAG, N-terminal, kept; Rluc8, C-terminal, kept
# T1 sequence (P47871 26-477): as above
molecule,measurement,setting,value
"ΔFL, the βarr1 mutant with the turn region of the finger loop removed, with GFP2 at the C terminus (from UniProt P49407 1-418) (natural protein)","fold shift of the glucagon EC50 in the GCGR–βarr1 BRET, mutant against wild type",[1],24 fold
human βarr1 with GFP2 at the C terminus (from UniProt P49407 1-418) (natural protein),"fold shift of the glucagon EC50 in the GCGR–βarr1 BRET, mutant against wild type",[2],112 to 205 fold
B1,"fold drop of glucagon potency in the GCGR–βarr1 BRET, mutant against wild type",[3],15 fold
